The supplement of paper PMC10567573

B1: TRIM35 (parent)
chain: PTCPVCKDRASPADLRTNHTLNNL

Variants of: B1
Assay: protein stability index of a GFP-peptide fusion (GPS, HEK-293T) (PSI 1-6); higher = more stable
Conditions: c terminus: a fixed tail appended
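Also: lentivirally expressed fusions sorted by FACS into six bins by GFP to DsRed ratio, PSI derived from sequencing read proportions per bin multiplied by bin number.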

| Variant | protein stability index |
| --- | --- |
| PTCPVCKDRASPALLRTNHTLNNL | 2.2 |
| PTCPVCKDRASPAGLRTNHTLNNL | 2.48 |
| PTCPVCKDRASPAVLRTNHTLNNL | 2.54 |
| PTCPVCKDRASPAQLRTNHTLNNL | 3.18 |
| PTCPVCKDRASPACLRTNHTLNNL | 3.9 |
| PTCPVCKDRASPAPLRTNHTLNNL | 2.98 |
| PTCPVCKDRASPARLRTNHTLNNL | 2.94 |
| PTCPVCKDRASPANLRTNHTLNNL | 2.5 |
| PTCPVCKDRASPAYLRTNHTLNNL | 2.24 |
| PTCPVCKDRASPAWLRTNHTLNNL | 2.6 |
| PTCPVCKDRASPASLRTNHTLNNL | 2.98 |
| PTCPVCKDRASPATLRTNHTLNNL | 2.77 |
| PTCPVCKDRASPAKLRTNHTLNNL | 2.72 |
| PTCPVCKDRASPAALRTNHTLNNL | 2.5 |
| PTCPVCKDRASPAELRTNHTLNNL | 3.12 |
| PTCPVCKDRASPAMLRTNHTLNNL | 2.2 |
| PTCPVCKDRASPAILRTNHTLNNL | 2.45 |
| PTCPVCKDRASPAFLRTNHTLNNL | 2.21 |
| PTCPVCKDRASPAHLRTNHTLNNL | 2.97 |
| PTCPVCKDRASPADLRYNHTLNNL | 2.6 |
| PTCPVCKDRASPADLRGNHTLNNL | 3.18 |
| PTCPVCKDRASPADLRINHTLNNL | 3.07 |
| PTCPVCKDRASPADLRWNHTLNNL | 2.35 |
| PTCPVCKDRASPADLRANHTLNNL | 2.75 |

| Variant | protein stability index |
| --- | --- |
| PTCPVCKDRASPADLRQNHTLNNL | 3.28 |
| PTCPVCKDRASPADLRNNHTLNNL | 3.09 |
| PTCPVCKDRASPADLRCNHTLNNL | 4.21 |
| PTCPVCKDRASPADLRRNHTLNNL | 3.1 |
| PTCPVCKDRASPADLRLNHTLNNL | 2.58 |
| PTCPVCKDRASPADLRFNHTLNNL | 2.52 |
| PTCPVCKDRASPADLRENHTLNNL | 3.29 |
| PTCPVCKDRASPADLRDNHTLNNL | 3.36 |
| PTCPVCKDRASPADLRSNHTLNNL | 3.13 |
| PTCPVCKDRASPADLRMNHTLNNL | 2.67 |
| PTCPVCKDRASPADLRHNHTLNNL | 3.66 |
| PTCPVCKDRASPADLRPNHTLNNL | 3.34 |
| PTCPVCKDRASPADLRVNHTLNNL | 2.6 |
| PTCPVCKDRASPADLRKNHTLNNL | 3.02 |
| PTCPVCKDRASHADLRTNHTLNNL | 2.61 |
| PTCPVCKDRASGADLRTNHTLNNL | 2.9 |
| PTCPVCKDRASEADLRTNHTLNNL | 3.38 |
| PTCPVCKDRASFADLRTNHTLNNL | 2.52 |
| PTCPVCKDRASAADLRTNHTLNNL | 2.46 |
| PTCPVCKDRASNADLRTNHTLNNL | 2.89 |
| PTCPVCKDRASYADLRTNHTLNNL | 2.69 |
| PTCPVCKDRASWADLRTNHTLNNL | 2.03 |
| PTCPVCKDRASDADLRTNHTLNNL | 3.5 |
| PTCPVCKDRASQADLRTNHTLNNL | 3.11 |

| Variant | protein stability index |
| --- | --- |
| PTCPVCKDRASVADLRTNHTLNNL | 2.85 |
| PTCPVCKDRASMADLRTNHTLNNL | 2.35 |
| PTCPVCKDRASCADLRTNHTLNNL | 2.58 |
| PTCPVCKDRASSADLRTNHTLNNL | 2.95 |
| PTCPVCKDRASKADLRTNHTLNNL | 2.83 |
| PTCPVCKDRASLADLRTNHTLNNL | 2.1 |
| PTCPVCKDRASIADLRTNHTLNNL | 2.47 |
| PTCPVCKDRASTADLRTNHTLNNL | 2.96 |
| PTCPVCKDRASRADLRTNHTLNNL | 2.36 |
| PTCPVCKDRACPADLRTNHTLNNL | 3.74 |
| PTCPVCKDRAAPADLRTNHTLNNL | 3.3 |
| PTCPVCKDRAEPADLRTNHTLNNL | 3.51 |
| PTCPVCKDRAKPADLRTNHTLNNL | 3.32 |
| PTCPVCKDRAHPADLRTNHTLNNL | 2.92 |
| PTCPVCKDRAYPADLRTNHTLNNL | 3.11 |
| PTCPVCKDRAFPADLRTNHTLNNL | 2.55 |
| PTCPVCKDRARPADLRTNHTLNNL | 2.72 |
| PTCPVCKDRAGPADLRTNHTLNNL | 2.94 |
| PTCPVCKDRANPADLRTNHTLNNL | 2.86 |
| PTCPVCKDRAMPADLRTNHTLNNL | 3.1 |
| PTCPVCKDRAIPADLRTNHTLNNL | 2.97 |
| PTCPVCKDRAVPADLRTNHTLNNL | 3.1 |
| PTCPVCKDRALPADLRTNHTLNNL | 3.07 |
| PTCPVCKDRATPADLRTNHTLNNL | 3.04 |

| Variant | protein stability index |
| --- | --- |
| PTCPVCKDRAQPADLRTNHTLNNL | 3.07 |
| PTCPVCKDRADPADLRTNHTLNNL | 3.44 |
| PTCPVCKDRAWPADLRTNHTLNNL | 2.51 |
| PTCPVCKDRAPPADLRTNHTLNNL | 3.19 |
| PTCPVCKDRASPYDLRTNHTLNNL | 2.59 |
| PTCPVCKDRASPWDLRTNHTLNNL | 1.81 |
| PTCPVCKDRASPEDLRTNHTLNNL | 3.86 |
| PTCPVCKDRASPSDLRTNHTLNNL | 2.87 |
| PTCPVCKDRASPCDLRTNHTLNNL | 3.69 |
| PTCPVCKDRASPMDLRTNHTLNNL | 2.58 |
| PTCPVCKDRASPKDLRTNHTLNNL | 3.65 |
| PTCPVCKDRASPFDLRTNHTLNNL | 2.26 |
| PTCPVCKDRASPHDLRTNHTLNNL | 3.1 |
| PTCPVCKDRASPGDLRTNHTLNNL | 3.23 |
| PTCPVCKDRASPQDLRTNHTLNNL | 2.55 |
| PTCPVCKDRASPLDLRTNHTLNNL | 2.31 |
| PTCPVCKDRASPVDLRTNHTLNNL | 2.62 |
| PTCPVCKDRASPTDLRTNHTLNNL | 2.75 |
| PTCPVCKDRASPDDLRTNHTLNNL | 3.13 |
| PTCPVCKDRASPNDLRTNHTLNNL | 3.27 |
| PTCPVCKDRASPIDLRTNHTLNNL | 2.53 |
| PTCPVCKDRASPPDLRTNHTLNNL | 3.29 |
| PTCPVCKDRASPRDLRTNHTLNNL | 3.2 |
| PTCPVCKDRASPADLRTNHHLNNL | 3.03 |

| Variant | protein stability index |
| --- | --- |
| PTCPVCKDRASPADLRTNHELNNL | 3.92 |
| PTCPVCKDRASPADLRTNHFLNNL | 2.59 |
| PTCPVCKDRASPADLRTNHCLNNL | 3 |
| PTCPVCKDRASPADLRTNHLLNNL | 2.77 |
| PTCPVCKDRASPADLRTNHMLNNL | 2.67 |
| PTCPVCKDRASPADLRTNHKLNNL | 2.81 |
| PTCPVCKDRASPADLRTNHPLNNL | 3.23 |
| PTCPVCKDRASPADLRTNHALNNL | 3.11 |
| PTCPVCKDRASPADLRTNHDLNNL | 3.76 |
| PTCPVCKDRASPADLRTNHNLNNL | 3 |
| PTCPVCKDRASPADLRTNHILNNL | 2.76 |
| PTCPVCKDRASPADLRTNHGLNNL | 2.76 |
| PTCPVCKDRASPADLRTHHTLNNL | 2.94 |
| PTCPVCKDRASPADLRTCHTLNNL | 3.6 |
| PTCPVCKDRASPADLRTSHTLNNL | 2.81 |
| PTCPVCKDRASPADLRTKHTLNNL | 2.48 |
| PTCPVCKDRASPADLRTQHTLNNL | 3.3 |
| PTCPVCKDRASPADLRTLHTLNNL | 2.6 |
| PTCPVCKDRASPADLRTYHTLNNL | 2.76 |
| PTCPVCKDRASPADLRTEHTLNNL | 3.75 |
| PTCPVCKDRASPADLRTVHTLNNL | 2.62 |
| PTCPVCKDRASPADLRTDHTLNNL | 3.4 |
| PTCPVCKDRASPADLRTAHTLNNL | 2.67 |
| PTCPVCKDRASPADLRTMHTLNNL | 2.64 |

| Variant | protein stability index |
| --- | --- |
| PTCPVCKDRASPADLRTTHTLNNL | 2.86 |
| PTCPVCKDRASPADLRTPHTLNNL | 2.83 |
| PTCPVCKDRASPADLRTGHTLNNL | 3.03 |
| PTCPVCKDRASPADLRTIHTLNNL | 2.31 |
| PTCPVCKDRASPADLRTFHTLNNL | 2.53 |
| PTCPVCKDRASPADLRTRHTLNNL | 2.71 |
| PTCPVCKDRASPADLRTWHTLNNL | 2.16 |
| PTCPVCKDRASPADLITNHTLNNL | 2.33 |
| PTCPVCKDRASPADLWTNHTLNNL | 2.01 |
| PTCPVCKDRASPADLTTNHTLNNL | 2.95 |
| PTCPVCKDRASPADLKTNHTLNNL | 2.7 |
| PTCPVCKDRASPADLMTNHTLNNL | 2.72 |
| PTCPVCKDRASPADLHTNHTLNNL | 3.17 |
| PTCPVCKDRASPADLCTNHTLNNL | 3.89 |
| PTCPVCKDRASPADLPTNHTLNNL | 3.11 |
| PTCPVCKDRASPADLETNHTLNNL | 4.09 |
| PTCPVCKDRASPADLNTNHTLNNL | 3.32 |
| PTCPVCKDRASPADLYTNHTLNNL | 2.42 |
| PTCPVCKDRASPADLDTNHTLNNL | 3.91 |
| PTCPVCKDRASPADLFTNHTLNNL | 2.42 |
| PTCPVCKDRASPADLATNHTLNNL | 3.34 |
| PTCPVCKDRASPADLGTNHTLNNL | 2.63 |
| PTCPVCKDRASPADLQTNHTLNNL | 3.39 |
| PTCPVCKDRASPADLVTNHTLNNL | 3.07 |

| Variant | protein stability index |
| --- | --- |
| PTCPVCKDRASPADLLTNHTLNNL | 3.04 |
| PTCPVCKDRASPADLSTNHTLNNL | 3.54 |
| PTCPVCKDRASPADIRTNHTLNNL | 3 |
| PTCPVCKDRASPADRRTNHTLNNL | 3.33 |
| PTCPVCKDRASPADYRTNHTLNNL | 2.83 |
| PTCPVCKDRASPADDRTNHTLNNL | 3.73 |
| PTCPVCKDRASPADWRTNHTLNNL | 2.13 |
| PTCPVCKDRASPADFRTNHTLNNL | 2.66 |
| PTCPVCKDRASPADTRTNHTLNNL | 3.57 |
| PTCPVCKDRASPADCRTNHTLNNL | 4.23 |
| PTCPVCKDRASPADQRTNHTLNNL | 3.78 |
| PTCPVCKDRASPADPRTNHTLNNL | 3.34 |
| PTCPVCKDRASPADERTNHTLNNL | 3.86 |
| PTCPVCKDRASPADKRTNHTLNNL | 3.21 |
| PTCPVCKDRASPADGRTNHTLNNL | 3.87 |
| PTCPVCKDRASPADMRTNHTLNNL | 2.9 |
| PTCPVCKDRASPADHRTNHTLNNL | 3.14 |
| PTCPVCKDRASPADNRTNHTLNNL | 3.96 |
| PTCPVCKDRASPADVRTNHTLNNL | 3.67 |
| PTCPVCKDRASPADSRTNHTLNNL | 3.57 |
| PTCPVCKDRASPADARTNHTLNNL | 3.35 |
| PTCPVCKDRWSPADLRTNHTLNNL | 2.22 |
| PTCPVCKDRYSPADLRTNHTLNNL | 2.56 |
| PTCPVCKDRVSPADLRTNHTLNNL | 2.45 |

| Variant | protein stability index |
| --- | --- |
| PTCPVCKDRTSPADLRTNHTLNNL | 2.96 |
| PTCPVCKDRASPADLRTNMTLNNL | 3.09 |
| PTCPVCKDRASPADLRTNPTLNNL | 3.19 |
| PTCPVCKDRASPADLRTNVTLNNL | 3.04 |
| PTCPVCKDRASPADLRTNDTLNNL | 3.61 |
| PTCPVCKDRASPADLRTNATLNNL | 2.86 |
| PTCPVCKDRASPADLRTNYTLNNL | 3.13 |
| PTCPVCKDRASPADLRTNQTLNNL | 3.28 |
| PTCPVCKDRASPADLRTNETLNNL | 3.79 |
| PTCPVCKDRASPADLRTNSTLNNL | 3.09 |
| PTCPVCKDRASPADLRTNWTLNNL | 2.86 |
| PTCPVCKDRASPADLRTNFTLNNL | 2.4 |
| PTCPVCKDRASPADLRTNGTLNNL | 3.33 |
| PTCPVCKDRASPADLRTNRTLNNL | 3.14 |
| PTCPVCKDRASPADLRTNTTLNNL | 2.81 |
| PTCPVCKDRASPADLRTNKTLNNL | 3.21 |
| PTCPVCKDRASPADLRTNNTLNNL | 3.09 |
| PTCPVCKDRASPADLRTNCTLNNL | 2.95 |
| PTCPVCKDRASPADLRTNLTLNNL | 3.02 |
| PTCPVCKDRASPADLRTNITLNNL | 2.5 |
